{"source": "paper PMC11199644", "about": "“Structural and mechanistic insights into a lysosomal membrane enzyme HGSNAT involved in Sanfilippo syndrome” (Nature Communications, 2024)", "proteins": {"B1": {"name": "heparan sulfate acetyl-CoA:α-glucosaminide N-acetyltransferase (HGSNAT) (enzyme, human, UniProt Q68CP4-2 1-635, looked up)", "chain": "MSGAGRALAALLLAASVLSAALLAPGGSSGRDAQAAPPRDLDKKRHAELKMDQALLLIHNELLWTNLTVYWKSECCYHCLFQVLVNVPQSPKAGKPSAAAASVSTQHGSILQLNDTLEEKEVCRLEYRFGEFGNYSLLVKNIHNGVSEIACDLAVNEDPVDSNLPVSIAFLIGLAVIIVISFLRLLLSLDDFNNWISKAISSRETDRLINSELGSPSRTDPLDGDVQPATWRLSALPPRLRSVDTFRGIALILMVFVNYGGGKYWYFKHASWNGLTVADLVFPWFVFIMGSSIFLSMTSILQRGCSKFRLLGKIAWRSFLLICIGIIIVNPNYCLGPLSWDKVRIPGVLQRLGVTYFVVAVLELLFAKPVPEHCASERSCLSLRDITSSWPQWLLILVLEGLWLGLTFLLPVPGCPTGYLGPGGIGDFGKYPNCTGGAAGYIDRLLLGDDHLYQHPSSAVLYHTEVAYDPEGILGTINSIVMAFLGVQAGKILLYYKARTKDILIRFTAWCCILGLISVALTKVSENEGFIPVNKNLWSLSYVTTLSSFAFFILLVLYPVVDVKGLWTGTPFFYPGMNSILVYVGHEVFENYFPFQWKLKDNQSHKEHLTQNIVATALWVLIAYILYRKKIFWKI", "notes": "human HGSNAT, open reading frame of UniProt Q68CP4-2 (short isoform 2, 28 residues from the N-terminal missing); The purified sample held two species, the full-length protein and the auto-cleaved form (alpha and beta chains still together); A thrombin site lies between HGSNAT and the tags, so some residues of it may be left after cleavage; also called TMEM76; heparan-α-glucosaminide …"}}, "biological_target": "the molecule itself", "experiment": "cryo-EM structure; purified HGSNAT in 20 mM HEPES pH 7.4, 150 mM NaCl, 0.01% GDN; apo (two conformations) or with acetyl-CoA, CoA, acetyl-CoA + MU-βGlcN, CoA + MUF-NAG; six structures, all dimers"}
{"protein": "B1", "values": [{"measurement": "stoichiometry N", "value": 2}]}
